How the values were obtained:
[1] = target: wild-type tau repeat domain (WT tauRD) (human); test: MST; Cy5-labelled wild-type or mutant tau/tauRD titrated with a serial two-fold dilution of DnaJC7 or single DnaJC7 domains; Monolith NT.115; technical triplicates; fit in PALMIST with a 1:1 binding model
[2] = target: P301L tau repeat domain (P301L tauRD) (human); test: as above

Kd [1]: 2.2 µM | Kd [2]: 6.2 µM
B1: DnaJC7 (full-length, wild type, recombinant) (natural protein)
chain: MAAAAECDVVMAATEPELLDDQEAKREAETFKEQGNAYYAKKDYNEAYNYYTKAIDMCPKNASYYGNRAATLMMLGRFREALGDAQQSVRLDDSFVRGHLREGKCHLSLGNAMAACRSFQRALELDHKNAQAQQEFKNANAVMEYEKIAETDFEKRDFRKVVFCMDRALEFAPACHRFKILKAECLAMLGRYPEAQSVASDILRMDSTNADALYVRGLCLYYEDCIEKAVQFFVQALRMAPDHEKACIACRNAKALKAKKEDGNKAFKEGNYKLAYELYTEALGIDPNNIKTNAKLYCNRGTVNSKLRKLDDAIEDCTNAVKLDDTYIKAYLRRAQCYMDTEQYEEAVRDYEKVYQTEKTKEHKQLLKNAQLELKKSKRKDYYKILGVDKNASEDEIKKAYRKRALMHHPDRHSGASAEVQKEEEKKFKEVGEAFTILSDPKKKTRYDSGQDLDEEGMNMGDFDPNNIFKAFFGGPGGFSFEASGPGNFFFQFG
